pKd: −log10 of the molar value.
Molecular target: GST-human NOGO-A56 (human) (UniProt Q9NQC3)
Assay: SPR (Biacore 3000), GST-human NOGO-A56 on CM5 chip, antibody as analyte; single experiment

GST-human NOGO-A56 (human), sequence (Q9NQC3 586-785): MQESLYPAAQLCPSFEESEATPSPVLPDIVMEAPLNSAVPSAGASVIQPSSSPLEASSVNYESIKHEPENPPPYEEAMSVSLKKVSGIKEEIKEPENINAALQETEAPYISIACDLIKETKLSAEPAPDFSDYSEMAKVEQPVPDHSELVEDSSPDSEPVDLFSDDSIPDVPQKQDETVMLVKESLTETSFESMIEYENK

## 11C7 (chimeric version) (antibody)
  pKd: 10.24
  koff: 8.25e-05 s⁻¹
  kon: 1.44e+06 M⁻¹ s⁻¹

— patent US20110054149A1
